assay: soluble on expression in E. coli; label from the status in PepcDB or PDB records

| Sequence | soluble on expression in E. coli |
| --- | --- |
| MGSDKIHHHHHHMSHTITVIGLGAGDLEQLPLGVYRLILNQDHLYVRTKDHPVIEELIGEGHSFTFFDSIYEQHETFEAVYDAIVAELLEAAKSKEILYAVPGHPLVAERTVQLLLEAEREGRVTVKILGGQSFLDPMFSALKIDPVEGCQVLDGTMLSRDEVHVTQHIVICQVYDQMIASHVKLTLMELLPDDYEVTVATAVGTKNEKLETVPLYELDRVTTISNLTAVYVPPVEDEVILYQDFRTLRQIIATLRGPDGCPWDKKQTHQSLKKYLLEEAYEVLEAIDEENEDHLVEELGDLLLQVLLHAQIGEDDGWFQIEDVIRSISEKMIRRHPHVFGERQVEDAEDVVETWDEIKKAEKGEDQASTSILGKIPKGLPSLMLAFELQKKAAKVGFDWAEVEPMWAKLDEEMHEFKEEIQAGHSQEMAKEFGDVLFVLVNIGRFYNIYAEEALHRTNEKFKRRFQSIEQAITAKGDTLEESSLEEMDVLWNQAKESESQGE | not soluble |
| MASNRGQLNHELSKLFNELWDADQNRMKSGKDYRISLQGKAGYVPAGSNQARDSASFPLFQFVDEEKLKSRKTFATFISLLDNYEMDTGVAEVVTPEEIAENNNFLDAILETKVMKMAHDYLVRKNQAKPTRNDFKVQLYNIWFQLYSRAPGSRPDSCGFEHVFVGESKRGQEMMGLHNWVQFYLQEKRKNIDYKGYVARQNKSRPDEDDQVLNLQFNWKEMVKPVGSSFIGVSPEFEFALYTIVFLASQEKMSREVVRLEEYELQIVVNRHGRYIGTAYPVLLSTNNPDLY | soluble |
| MAMSIELRTKYGQIDISNEVIAMVAGGAAVDCYGIVGSKNQIKDGLTEILRKENFSRGVQVRQEGEQIHIDMYIIVSYGTKISEVAHNVQTKVKYTVNQTIGLAVDSVNIYVQGVRVTNPLEHHHHHH | not soluble |
| GHHHHHHAIAENLYFQSSRNPEVLWAQRSDKVYLTVALPDAKDISVKCEPQGLFSFSALGAQGERFEFSLELYGKIMTEYRKNVGLRNIIFSIQKEERSWWTRLLKSEEKPAPYIKVDWNKWCDEDEEVNSETASDDESAFVNQDSESSDDDGLLYLPDLEKARNK | soluble |
| MKKVIGIGEYAVMKNPGVIVTLGLGSCVAVCMRDPVAKVGAMAHVMLPDSGGKTDKPGKYADTAVKTLVEELKKMGAKVERLEAKIAGGASMFESKGMNIGARNVEAVKKHLKDFGIKLLAEDTGGNRARSVEYNIETGKLLVRKVGGGEQLEIKEI | soluble |
| RPQTTNSWQNSEIEGIDIMLAIDVSTSMLAEDLKPNRLEAAKDVAAEFINGRPNDNIGITLFAGESFTQCPLTVDHAVLLNLFQGIQCDIIEDGTAVGMGIANAVTRLKDSKAKSKVIILLTDGTNNKGDISPLTAAEIAKSFGIRVYTIGVGTNGMAPYPVRVGGTTQYINTPVEIDEKTLTQIAGTTDGNYFRATSNSKLKEVYEEI | not soluble |
| MNFQKVCSLDELWEGDMTEVEVAGHVIVLVRPEGGEPRAFQGICPHQDIPLAEGKFDGRVLMCRAHQWTFDANTGKGINPGGARLAEYALKVEGDDILVAVEGVEPLFANC | soluble |
| MSLDKPVIKISTENVDLIYRVGDNGRLYQSYLGKRLNHATDIAHLPQGSEAYLTHGMEDYFEPAIHIVHNDGNPSTLLKYVSHTRNQVSPGVDEVVITMQDDKYPVTVKLHYVAYQKENLIKTFTEISHREKKPVQLHKYASSMLHLNRANYFLTEFSGDWASEAHVKEQPLEFGKKTIDTKLGARANMFCSPFFQLALDGKSEENQGEVLVGTLGWTGNFSFVFEVDNKNELRVISGINPYASEYSLKPNEIFRTPDFYFTYSFKGKGQASRNFHDWARKYQVKDGNQTRMTLLNNWEATYFDFDEAKLVKLMDDAVELGVDMFLLDDGWFANKYPRSGDHQGLGDWDETADKLPHGIGYLTEAAKKKGIKFGIWIEPEMVNPKSELYEKHKDWVIHLPNRDEYYFRNQLVLDLSNPKVQDYVFGVVDNLMTKYPDIAFFKWDCNSPITNIYSVYLKDKQSHLYIDYVRGLYNVLERVKAKYPDLPMMLCSGGGGRSDYEALSYFTEFWPSDNTDPIERLFIQWGFSQVFPAKTMCAHVTTWNKNSSVKFRTDVAMMCKLGFDIKLADMSKDDETYCRTAVQNYNRLKPVVLEGDMYRLVSPYGSNHTSTMYVGKDKDKAVVFAFDIHPRYAEKILPVRLQGLDADKMYRVKEINLMPGANSEGHHHHHH | not soluble |
| MPGQQATKHESLLDQLSLKGKVVVVTGASGPKGMGIEAARGCAEMGAAVAITYASRAQGAEENVKELEKTYGIKAKAYKCQVDSYESCEKLVKDVVADFGQIDAFIANAGATADSGILDGSVEAWNHVVQVDLNGTFHCAKAVGHHFKERGTGSLVITASMSGHIANFPQEQTSYNVAKAGCIHMARSLANEWRDFARVNSISPGYIDTGLSDFVPKETQQLWHSMIPMGRDGLAKELKGAYVYFASDASTYTTGADLLIDGGYTTR | soluble |
| MPAFRMPPSTKVEYTSFGTKLSGAMKKIGLLSDTHGYIDEKYRIHFADCDEIWHAGDIGSVTVADYLSGLAPLRAVYGNIDGQDIRLQYPEVLRFCVEEVKVFMTHIGGYPGRYEPRIYRMLVQNPPRLFVCGHSHILKAMYDKKLDMLHLNPGAAGKYGFHAVRTLMRFVIDGRDIRDLQVIELADR | not soluble |
| MANSPKKPSDGTGVSASDTPKYQHTVPETKPAFNLSPGKASELSHSLPSPSQIKSTAHVSSTHNDAAGNTDDSVLPKNVSPTTNLRVESNGDTNNMFSSPAGLALPKKDDKKKNKGTSKADSKDGKASNSSGQNAQQQSDPNKMQDVLFSAGIDVREEEALLNSSINASKSQVQTNNVKIPNHLPFLHPEQVSNYMRKVGKEQNFNLTPTKNPEILDMMSSACENYMRDILTNAIVISRHRRKAVKINSGRRSEVSAALRAIALIQKKEEERRVKKRIALGLEKEDYENKIDSEETLHRASNVTAGLRAGSKKQYGWLTSSVNKPTSLGAKSSGKVASDITARGESGLKFREAREEPGIVMRDLLFALENRRNSVQTIISKGYAKIRD | not soluble |
| MKVAICDDNPTLTEKINTMLFNYNPNIFETYTYYNPLKLVNQLDQENFDFFILDIEMSEMSGIDLAKKIRERDILSPIVFLTSYKEYMEEVFQVQTFDYLLKPPTEDRLHQVLEKLRQQLEKKRNYFVFSSNKVTYKIPTKDIIYFEKDKRQVLIHTVGEIYKPYMSTNQINEQLDTNFVQVHSSFIINCAYIKELGKNFLLMDSKEKCIEIPISRRFKAAAHKSIVMSMRGKI | not soluble |
| MGSDKIHHHHHHMKITWFGHACFALEMEGKTIVTDPFDESVGYPIPNVTADVVTESHQHFDHNAHHLVKGNFRVIDRPGAYTVNGVKIKGVETFHDPSHGRERGKNIVFVFEGEGIKVCHLGDLGHVLTPAQVEEIGEIDVLLVPVGGTYTIGPKEAKEVADLLNAKVIIPMHYKTKYLKFNLLPVDDFLKLFDSYERVGNILELFEKPKERKVVVMEVQ | soluble |
| MAMNGTITTWFKDKGFGFIKDENGDNRYFHVIKVANPDLIKKDAAVTFEPTTNNKGLSAYAVKVVPESKYIYIAGERLKLTSIKSYLVYSEEVPADTRIDKENTVLSVGVLMNSIRPKSVAEPDEIRSLKKLAITTFQGTTLIFSEDEIDVDATVKLLKVLEHHHHHH | soluble |
| MIRVLLADDHALFRQGLKSLLEAEGDFRVVGEAKDGWEAMRHALETKPDVILMDIQMPGLDGVQATQAILKEWPQAKVIMLTMYRQDAYVFEAVKAGARGYLLKDVDARELVDAIRRVHAGEVLLDAELAGHIIQDFRAKKEASQPLHAELSEREVQILRLVAQGYTNQEIAAELQLSEKTVRNRLSEIFQKLHLNNRTQAALYAIREGLARPEE | soluble |
| MTAESPTIRLERYSERHVEGLTALYNDPAVARQVLQMPYQSVEQRRKRLHDSADDDRLLILVALHQGDVIGSASLEQHPRIRRSHSGSIGMGVAVAWQGKGVGSRLLGELLDIADNWMNLRRVELTVYTDNAPALALYRKFGFETEGEMRDYAVRDGRFVDVYSMARLRRVEGRVGE | soluble |
| GPGSMLLSVPEAHTEVITSLQFSPHHASVLCSTSGDDTAALWDLRNPSDSCNIARLTHHREPVNHALFIEESEPCLLTASDDRTIAYWDVREISQPVAVIRGFGDGINKMLRLPVSRRSGNACVNGGACCLIVSACDDGAVYIHDVALCGDTRRQSGMPVEGAGDTFSSTGNLVDRFMASTSTVNDLVLSPNPNLLLTASEDCAIRLWDIGPIFGGQRTQDERLVTSFDEFENPVNHIAVINSPRVTQFVQDEGQGGHSGCWLYAACSEFIFAVDLDPVSGALGEGARTLTGHQDYVRGLEFVGDDTLLTVSDDSTVIEWSLRTSNPVRQVKLHEGLVMASAVSAARDVLATGTDGGEMRVWRLPFLTE | not soluble |
| MRILQLILLALATGLVGGETRIIKGFECKPHSQPWQAALFEKTRLLCGATLIAPRWLLTAAHCLKPRYIVHLGQHNLQKEEGCEQTRTATESFPHPGFNNSLPNKDHRNDIMLVKMASPVSITWAVRPLTLSSRCVTAGTSCLISGWGSTSSPQLRLPHTLRCANITIIEHQKCENAYPGNITDTMVCASVQEGGKDSCQGDSGGPLVCNQSLQGIISWGQDPCAITRKPGVYTKVCKYVDWIQETMKNN | soluble |
| MSRAVRPYLVLATQRSGSTLLVESLRATGCAGEPQEFFQYLPSTGMAPQPREWFAGVDDDTILQLLDPLDPGTPDTATPVAWREHVRTSGRTPNGVWGGKLMWNQTALLQQRAAQLPDRSGDGLRAAIRDVIGNEPVFVHVHRPDVVSQAVSFWRAVQTQVWRGHPDPKRDSQAVYHAGAIAHIIRNLRDQENGWRAWFAEEGIDPIDIAYPVLWRNLTAIVASVLDAIGQDPKLAPAPMLERQANQRSDEWVDRYRAEAPRLGLPT | soluble |
| MGRKKKKVDKPWCWYCNREFDDEKILIQHQKAKHFKCHICHKKLFSGPGLSIHCMQVHKETIDKIPAAVHGRDNIHVEIYGMQGIPSGAYRGAADEEPDEKRSRMDNGPPMPTPMPFPQHFPFPGMPPMPSGPPPPSMAYGMPPMPSGMMPPRGMPGAYPPPRGYPPAPAPGVYMPPPGMPGAYPPPRMPIGHGPPGGPPMPGPPQRSRFDQPDGGDRWGPPMRGVPRTPPYENEHEHQDYQAPDDYNQGGYDDRFREGDRGGPPGGSRFDQVKAELKEEIVEPNNGPPTTSSGAAAASAAAVVASKLGSRTRIVYPDDHSLSLEERRVKMLFEKRSNPYH | soluble |
| MRVVIQRVKGAILSVRKENIGENEKELEIISEIKNGLICFLGIHKNDTWEDALYIIRKCLNLRLWNNDNKTWDKNVKDLNYELLIVSQFTLFGNTKKGNKPDFHLAKEPNEALIFYNKIIDEFKKQYNDDKIKIGKFGNYMNIDVTNDGPVTIYIDTHDINLNK | soluble |
| MSASFSAPRLRPRQLSAGDLVEESLLDPANDYLRIVRARQPGMDLRQWIAAAGAGLRDSLLRHGGILFRGFAVDGAEGFSQAVQSFSPNMLDYLERAAARQEVAHRVFTSTEFSPDGWIPPHHEMSYSHNWPSYIHFYCQTPPATQGRTPLADERRVSARIPEAIRQRFLRHGVCYVRNYGPEIDLTWQEGFQTDSRAEVEAYCRQTGTQWTWLDDQRLNTRQVRQAMVRHPLSGETLWFNHAHMFHVSNMPPALARALLDEVGEQGLPRNAYYGDGSPIEAEVLDTIRAAYREETRAFAWERGDVLMLDNFISVHGREPYTGERKVLVAMTDLHVHQP | not soluble |
| ESSVNPVVLDFEDGTVMSFGEAWGDSLKCIKKVSVSQDLQRPGNKYALRLDVEFNPNNGWDQGDLGTWIGGVVEGQFDFTGYKSVEFEMFIPYDEFSKSQGGFAYKVVINDGWKELGSEFNITANAGKKVKINGKDYTVIHKAFAIPEDFRTKKRAQLVFQFAGQNSNYKGPIYLDNVRIRPEDA | soluble |

Reference: the DeepSol protein solubility set
